The results in this text go back to patent US20200088726A1.

The target of this experiment is ESO 9V WT-A*02:01 pMHC (human). Briefly: BLI (OctetRED 384), pMHC immobilised on streptavidin biosensor, soluble 1G4 TCR in 1:2 dilution series from 24 µM; fit R² = 0.9992.

The term Kd denotes a measure of binding affinity in units of concentration. Read a low Kd as tighter binding.

With 1G4 TCR, the Kd was found to be 5.12 µM.
